According to patent US12043827B2, “Compositions, systems, and methods for base diversification” (Pairwise Plants Services, Inc., priority 2020, dated 2024):
Entries after “also recorded” stand apart in the source; their conditions may differ.

B1: APOBEC1: cytosine deaminase fused to MCP, recruited towards Cas9 nickase (D10A) by gRNA with 2×MS2 hairpins (protein, listed as Rattus norvegicus)
chain: SSETGPVAVDPTLRRRIEPHEFEVFFDPRELRKETCLLYEINWGGRHSIWRHTSQNTNKHVEVNFIEKFTTERYFCPNTRCSITWFLSWSPCGECSRAITEFLSRYPHVTLFIYIARLYHHADPRNRQGLRDLISSGVTIQIMTEQESGYCWRNFVNYSPSNEAHWPRYPHLWVRLYVLELYCIILGLPPCLNILRRKQPQLTFFTIALQSCHYQRLPPHILWATGLK
B2: SpThp1: uracil DNA glycosylase with activity towards inosine from Schizosaccharomyces pombe, SEQ ID NO:79 (protein)
chain: MNDIETRDTGTKNDNSSEFNLSVKSHKRKRSFDDENLELEESREETSGGILKKAKTQSFSESLERFRFAHAGSNNEYRKTDVVKNSDTDNGLLKSAVETITLENGLRNRRVNVTKKSTLKASVKKSTLKKKNEVDPALLQGVPDYICENPYAIIVGLNPGITSSLKGHAFASPSNRFWKMLNKSKLLEGNAEFTYLNDKDLPAHGLGITNLCARPSSSGADLRKEEMQDGARILYEKVKRYRPQVGLFISGKGIWEEMYKMLTGKKLPKTFVFGWQPEKFGDANVFVGISSSGRAAGYSDEKKQNLWNLFAEEVNRHREIVKHAV
modifications: Schizosaccharomyces pombe
B3: CgMPG: truncated MPG of Cricetulus griseus, SEQ ID NO:86, fused to C-terminus of ABE8e (protein, listed as Cricetulus griseus)
chain: EDHPARLGPEFFDQPAVTLARAFLGQVLVRRLADGTELRGRIVETEAYLGPEDEAAHSRGGRQTPRNRGMFMKPGTLYVYIIYGMYFCLNVSSQGAGACVLLRALEPLEGLDTMRQLRSTLRKSTVSRTLKDRELCSGPSKLCQALAIDKSFDQRDLTQDEAVWLEHGPLATGSPAVVAAARIGIGHAGEWTQKPLRFYVQGSPWVSVVDRVAEQMCQPQQTA
B4: ClMPG: truncated MPG of Canis lupus, SEQ ID NO:87, fused to C-terminus of ABE8e (protein, listed as Canis lupus)
chain: KSHSAQLGSDFFDQPAVALARAFLGQVLVRRLDDGTELRGRIVETEAYLGPEDEAAHSRGGRQTPRNRGMFMKPGTLYVYIIYGMYFCLNVSSQGDGACVLLRALEPLGGLETMRQLRSTLRKGTTGRALKDRELCSGPSKLCQALAIDKSFDQRDLAKDRAVWLERSPPGPSEPAVVAAARVGIGHAGEWAQKPLRFYLRGSPWVSVVDRAAEQNAQA
B5: mMPG: methylpurine glycosylase from Mus musculus, SEQ ID NO:83, UniProtKB Q04841 (protein, listed as Mus musculus)
chain: MPARGGSARPGRGALKPVSVTLLPDTEQPPFLGRARRPGNARAGSLVTGYHEVGQMPAPLSRKIGQKKQRLADSEQQQTPKERLLSTPGLRRSIYFSSPEDHSGRLGPEFFDQPAVTLARAFLGQVLVRRLADGTELRGRIVETEAYLGPEDEAAHSRGGRQTPRNRGMFMKPGTLYVYLIYGMYFCLNVSSQGAGACVLLRALEPLEGLETMRQLRNSLRKSTVGRSLKDRELCSGPSKLCQALAIDKSFDQRDLAQDDAVWLEHGPLESSSPAVVVAAARIGIGHAGEWTQKPLRFYVQGSPWVSVVDRVAEQMDQPQQTACSEGLLIVQK
B6: CjMPG: truncated MPG of Callithrix jacchus, SEQ ID NO:88, fused to C-terminus of ABE8e (protein, listed as Callithrix jacchus)
chain: KGYLTRLGSEFFDQPAVTLAQAFLGQVLVRRLPNGTELRGRIVETEAYLGPEDEAAHSRGGRQTPRNRGMFMKPGTLYVYIIYGMYFCMNISSQGDGACVLLRALEPLEGLETMRQLRSTLRKGTASRVLKDRELCSGPSKLCQALAIDKSFDQRDLAQDEAIWLEHGPLEPSGPTVVAAARVGIGYAGEWSRKPLRFYVRGSPWVSVVDRVAEQDAQA

How the values were obtained:
Format in all cases: cell-based
[1] = test system: several genomic sites in HEK293T cells (target nucleic acid of SEQ ID NO:132); assay: Deaminase screen for base diversification, MCP-deaminase recruited to Cas9 nickase (D10A), HTS in HEK293T cells; settings: MCP fusion recruited to Cas9 nickase (D10A) by 2xMS2 gRNA, no UGI, FIG. 4
Experimental: They were fused to MCP (MS2 […]) at the N-terminus, and recruited towards Cas9 nickase (D10A) by using gRNA fused to 2×MS2 hairpins. They were assayed against several genomic sites in HEK293T cells. Base conversion profiles were analyzed by high-throughput sequencing and the results are shown in FIG. 4 for the target nucleic acid of SEQ ID NO:132.
AP endonuclease I (APE1) is an enzyme within the base excision repair pathway that cleaves the phosphodiester bond at the abasic site, generating a nick in the base-edited strand. […] In constructs lacking UGI, base diversification is usually accompanied with indels. For example, in all target sites described above, about 5-20% of products contain indels, which lowers the efficiency of base diversification (FIG. 5).

APE1 = molecular target: T1, APE1 (Homo sapiens, UniProt P27695); assay: APE1 inhibitor effect on base diversification and indels, AID or pmCDA1 fused to Cas9 nickase (D10A), HTS in HEK293T cells; settings: 100 μM and 200 μM, 3 d
T1 construct: endogenous in cells; host or cells: HEK293T
T1 sequence (P27695 whole entry, the tested form may be a part): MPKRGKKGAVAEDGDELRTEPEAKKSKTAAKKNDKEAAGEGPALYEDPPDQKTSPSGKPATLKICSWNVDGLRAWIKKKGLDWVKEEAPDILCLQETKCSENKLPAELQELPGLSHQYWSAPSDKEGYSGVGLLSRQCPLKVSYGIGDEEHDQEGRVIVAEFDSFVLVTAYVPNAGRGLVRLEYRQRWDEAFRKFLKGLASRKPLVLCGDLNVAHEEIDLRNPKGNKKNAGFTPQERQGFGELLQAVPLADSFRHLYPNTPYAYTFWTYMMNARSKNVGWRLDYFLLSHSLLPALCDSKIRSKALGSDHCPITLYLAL
Experimental: APE1 was inhibited by using CRT0044876 (Scheme 1), which is a potent and well-known APE1 inhibitor.
To ascertain whether this compound improves base diversification profile, HEK293T cells were treated with AID or pmCDA1 fused to Cas9 nickase (D10A) in the presence of CRT0044876. After 3 d, the cells were harvested and analyzed through high-throughput sequencing (HTS).

[2] = test system: Sites 1-4 (SEQ ID NO:131-134); assay: Fusion architecture for adenine diversifiers (ABE8.20m N- or C-terminal glycosylase fusions), HTS in HEK293T cells; settings: four guide RNAs, 3 days, FIG. 9
Experimental: Several glycosylase domains were fused to either the N-terminus or C-terminus of ABE8.20m (SEQ ID NO:57). For the N-terminal fusions to ABE8.20m, the deaminase was between the glycosylase domain and CRISPR-Cas effector protein, and, for the C-terminal fusions to ABE8.20m, the CRISPR-Cas effector protein was between the glycosylase domain and deaminase. Three putative inosine glycosylases were tested, which are: hMPG, a methylpurine glycosylase (MPG) from Homo sapiens (SEQ ID NO:84, UniProtKB—P29372); mMPG from Mus musculus (SEQ ID NO:83, UniProtKB—Q04841); and SpThp1, a known uracil DNA glycosylase that also has activity towards inosine, from Schizosaccharomyces pombe (SEQ ID NO:79, UniProtKB—O59825) (Alseth et al. Nucleic Acids Research 2005, 33(3) 1123-1131).
The following plasmids were transfected into HEK293T cells: a plasmid encoding ABE8.20m or a fusion protein including ABE8.20m fused to one of the above inosine glycosylases, and a plasmid encoding a guide RNA. […] Four guide RNAs were tested corresponding to the following four target nucleic acids (i.e., sites): Site 1: […] (SEQ ID NO:131), Site 2: […] (SEQ ID NO:132), Site 3: […] (SEQ ID NO:133), and Site 4: […] (SEQ ID NO:134). After three days, the editing efficiency was measured by high throughput sequencing of targeted loci.

endogenous loci = assay: Transversion mutations from adenine: ABE7.10 with inosine glycosylases (fusion or in trans), HTS in HEK293T cells; settings: fusion constructs and co-transfected constructs with ABE7.10, FIGS. 7A-7B and 8A-8B
Text: The experiment was designed to generate transversion mutations from adenines by promoting inosines to undergo the same cellular DNA repair pathways that generate transversion mutations during translesion-bypass polymerization in cytosine base editing. While not wishing to be bound to any particular theory, it was hypothesized that the key step was to facilitate the glycosylation of inosines generated during adenine base editing. It was hypothesized that once glycosylated, the resulting abasic site can be a substrate for translesion-bypass repair and that this would lead to transversion mutations. Exogenous inosine glycosylases were provided along with ABE to promote inosine glycosylation.
Several inosine glycosylases were screened in HEK293T cells and it was determined whether they were capable of acting on inosines generated by ABE. If inosine is converted into an abasic site, and subsequently repaired through translesion-bypass polymerization, transversion mutations can be generated from adenines.
Five different glycosylases from various species were selected for testing. The following genes were codon-optimized and cloned into a mammalian expression vector, either as unfused gene, or as a C-terminal fusion to ABE7.10 (species source in parenthesis); hMPG (Homo sapiens) having an amino acid sequence of SEQ ID NO:84, mMPG (Mus musculus) having an amino acid sequence of SEQ ID NO:83, rMPG (Rattus norvegicus) having an amino acid sequence of SEQ ID NO:80, SpThp1 (Schizosaccharomyces pombe) having an amino acid sequence of SEQ ID NO:79, MaHDG (Methanosarcina acetivorans) having an amino acid sequence of SEQ ID NO:81, and MbHDG (Methanosarcina barkeri) having an amino acid sequence of SEQ ID NO:82. […] The HEK293T cells were transfected with a plasmid encoding gRNA targeting endogenous loci and either the fusion plasmid or a mixture of plasmids expressing ABE7.10 and the above inosine glycosylases. After 3 days, high-throughput sequencing was used to determine the editing result of targeted adenines. Mock transfection (using pUC19) was used to set baseline editing. All conditions that used ABE7.10 generated 10-20% guanine transition, as expected.

[3] = test system: Sites 1-5 (SEQ ID NO:131, 134, 133, 140, 132); assay: Inosine glycosylase homolog testing, C-terminal fusions to ABE8e; settings: C-terminal fusion to ABE8e, Sites 1-5, FIG. 16

Row | Molecule | generation of C and T bases from adenine over background (endogenous loci) | adenine to C or T editing activity of adenine diversifiers [3] | also measured
1 | APOBEC3A: cytosine deaminase fused to MCP, recruited towards Cas9 nickase (D10A) by gRNA with 2×MS2 hairpins | – | – | conversion of C into G, T, and A within the base editing window [1]: robustly converts C into G, T, and A nucleotides within the base editing window
2 | O=C(O)c1cc2cccc([N+](=O)[O-])c2[nH]1 [CRT0044876] | – | – | base diversification rate (APE1; FIGS. 6A and 6C): some decrease in base diversification rate was also observed; amount of indel generated (APE1; multiple target sites, FIGS. 6B and 6D): significant decrease in the amount of indel generated across multiple target sites; also recorded: reduces the rate of indel mutations
3 | ABE8.20m: adenine base editor, SEQ ID NO:57, without glycosylase domain | – | – | A to C or T change of target adenine [2]: negligible A to C or T change
4 | hMPG: methylpurine glycosylase from Homo sapiens, SEQ ID NO:84, UniProtKB P29372 | significant amount of C and T bases over background | – | –
5 | B1 | – | – | conversion of C into G, T, and A within the base editing window [1]: robustly converts C into G, T, and A nucleotides within the base editing window
6 | B2 | significant amount of C and T bases over background | – | –
7 | B3 | – | displayed the highest activity | –
8 | B4 | – | displayed the highest activity | –
9 | B5 | significant amount of C and T bases over background | – | –
10 | B6 | – | displayed the highest activity | –
